# Target: the molecule itself
# Test: SEC + other: electron microscopy
row,Protein,binding result
1,"MmPNMA5 (natural protein, mouse, UniProt Q5DTT8 1-618, looked up) MAVALLDDWCKGMDLDPKKAVLIVGIPVQYTEAAINDALKEGLPPLCAYKVIGRMFRREDEAKAVLIELPEVVDYTMMPTHIPAEGGAWEVVVKPRSPDDEFMNKLIYFLRDEGRRIVDVAKALGFSTVPTGKIELKNLDQDKPKGLKSLCNNSTCYKKLKVFSGSPFPGPGEESFETWLEEVTELMQLWQVSEREKKQCLLESLRGSALSIMQALWTSNDSLTVEQCLKALKHIFGNKEDSKVLQFRFLQSSQKPAEKVSDYLLRLEPLLQKAVQQSPLSAHSADSIRLKHVLSQVSMTTGLRGKLSLLDQQGCPPTFLELMKLTRDEEEWESTVVVEEQEQVRRDSSACEAANEVVTQAEDSREVSTQTTGEEMTSVKRRRLLWRHSAGEEGQRKESGFWAESEPDEQKPYVRAQESGNERGAWAVSHPNPKEIEAQDSQEFLPVAGNRDTLTKSWGSPDKGTGDMSVAEGQQGQGKAPNFLLARNDPNKQEQIPHSSVTTKWQDRGECQRLKWGASMITRPQGNPDRSWDTSGSQDGEDGCSELRMPTGTEAAQGVEEPATGLSWAEDTSAWEQARLGRETVPRRGGRRIQPVFRIIYTALGEPHEGSTLESFRE",binds
2,"MmMOAP1 (natural protein, mouse, UniProt Q9ERH6 1-352, looked up) MTLRLLEDWCRGMDMNPRKALLVAGIPPTCGVADIEEALQAGLAPLGEHRLLGRMFRRDENKNVALIGLTVETGSALVPKEIPAKGGVWRVIFKPPDTDSDFLCRLNEFLKGEGMTMGELTRVLGNRNDPLGLDPGIMIPEIRAPMLAQALNEALKPTLQYLRYKKLSVFSGRDPPGPGEEEFESWMFHTSQVMKTWQVSDVEKRRRLIESLRGPAFEIIRVLKINNPFITVAECLKTLETIFGIIDNPRALQVKYLTTYQKTDEKLSAYVLRLEPLLQKLVQKGAIEKEVVNQARLDQVIAGAVHKSVRRELGLPEGSPAPGLLQLLTLIKDKEAEEEEVLLQAELEGYCT",binds
3,"MmPNMA3 (natural protein, mouse, UniProt Q8JZW8 1-466, looked up) MPLNLLQDWCRGEHLNTQRSMLILGIPEDCSEDEFEETLHEALKHLGRYRIIGRMFRREENAQAFLVELARDFDYALVPREIEGKGGPWEVVVKPPHSDDEFLNRLNHFLEEERRTVSDMNRVLGTHSNHSPTKTTISADFWVWAQTLGAVMQPLLEQMLYRELRVFSGNTISIPGLLAFDSWLEHTTEMLQMWQVPEVEKRRRLMECLRGPALQVVNVLRANNAAITVKECLEALRQVFGSVDNRKIAQLKFCKAYQEPGEKVSSFVVRLETLLQKALEKNAISRKNVNQTRLKRILGGAILSAKLREKLKMLKQRRRPPGFLALVKLFREEEEEWEATRGSERSCYEGLELGPSPSNIGSEERELFVPAFGSVLEERPYQGSRRRRHRRRGQHRKGGVPRDDSQGTRKQNYDTFCYSCGEDGHIRVHCFNPSNRTLVKQKRQAAMEKGNRSWAWEKSHPKPKTK",binds

# — paper PMC8431961 (Science (New York, N.Y.), 2021)
